Assay: label from the status in PepcDB records
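Further: failed if final PepcDB status was selected cloned or expressed and not failed if soluble or beyond.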

Sequence | protein production
MMNASSISSRFKDLFVTPSIVFDFDGTLAIGHGPVLAYALCVAPEGSKDFLERVRRELRRYDDGQSIYRDGYDIVAKLASELGIDDGTMSVAYGESRKLLGSDLAPVEHVRGIKDILSSLKGHARLVLATNAPENGVHDLLRQWGVADLFDQLHFVVGKPAGLISIISDLQLDGPVLAVGDIYEFDLSPAAQLGADTALVGATATISEAKVSMRGDSIADLPLLAWVSSRVSSS | failed
MMNKPAPRELEVIRSTYITPHMLRITLGGAGLAGFPADQESAYIKLLFPQAGERPLMRTYTIRQQRDDEIDVDFVLHDTDGPASSWAKTAQVGELIQIGGPGLKKLINFEADWFLLAGDMTALPAISVNLAKLPNNAVGYAVIEVLSEADIQPLVHPEHVELHWVINPEADPEGRPLVERIAQLPWLAGEPAVWIACEFNSMRALRRHFKQAHALPKSHFYTSSYWKIGCNEGEHKLVKQEDEQLENGASV | not failed
MMNTKVALKQLMATHFITVDVPCPECGGAMTAWKEPTPDTPPRCPPVCMECGYRSVKKKEATTAKNLYESSLIKKAKDYFLNGSVLTDRKSLHKKISNYYPSNQESTKAKNISMEFCEKTLLGEIHHLILTGGVGVGKSHLAIGCLNEILVKSNYSKKVLFVSYRELLEQLKFAMNDEEARKAITGVAMSEIKAADVVVLDDIGAELGDFNKRDEKGNLILSRASNFDIDTLTGILESRIDKPTIITSNLKSKEIKYCYGERIVSRMATHSNGFMHRFTNTKDYRLKTALEHHHHHH | not failed
MMPPPAVPPQLPEVPAADLPRVRAPLSTYRRPQRTDFVTPTGGPFFAKQDKALNTIDLKMAHDLKLRGYRVKVAVVDEGVRSDHPLLNVEKKYGGDYMADGTRTYPDPKRQGRHGTSVALVLAGQDTDTYRGGVAPNADLYSANIGTRAGHVSDEAAFHAWNDLLGHGIKIFNNSFATEGPEGEQRVKEDRNEYHSAANKQNTYIGRLDRLVRDGALLIFAAGNGRPSGRAYSEVGSVGRTPRVEPHLQRGLIVVTAVDENGRLETWANRCGQAQQWCLAAPSTAYLPGLDKDNPDSIHVEQGTSLSAPLVTGAAVLVQDRFRWMDNDNLRTTLLTTAQDKGPYGVDPQYGWGVLDVGRAVQGPAQFAFGDFVARVTDTSTFGNDISGAGGLVVDGPGALVLAGSNTYAGRTTIKRGTLDVFGSVTSAVTVEPGGTLTGIGTVGTVTNQGTVVNKEAGLHVKGDYSQTAQGLLVTDIGSLLDVSGRASLAGRLHVDDIRPGYVGGDGKSVPVIKAGAVSGVFATLTRSPGLLLNARLDYRPQAVYLTMRRAERVHAAAQRGADDGRRASVLAVAERLDAAMRELDALPESQRDAAAPAAAIGRIQRVQSRKVLQDNLYSLAGATYANAAAVNTLEQNRWMDRLENHLAQAGGERVAAIAEYRHGQLRWRPDGLQGRQRGNGIMLGLAREVSAGLSLAAALTHSRTHWDESSGAPARDNAAMTTPGVLLGARRAWEDGWFVQGALGYSRYRNQATRHISLGDAGHTVGATARGHVWQADAGLGRQWTLAPGHTLAPRAGLQLTHLRQQGFSESGAQGLGLRAHALTRTVPTLWAQLQSRHAFMLGATPMTAQLQLGVWHDLRARRYAASGGFAGLAQDQGASGYWPVPRTRVQGALGLRAEFAPGLVLGLGYTGQLATHWVDHQLSASLTYRY | failed
MMPPQRSAGTDPEAEHPQYAGQYLLEAALGSGGMGVVHLARSASGLRLAVKVVHAQYAQDPEFRGRFRQEVAAARRVSGAFTAPVVDADPGAGRPWMATLFIPGPTLAEHVKRNGALPPARLRHLMAGLAEALRDIHRAGVVHRDLKPSNVLLAEDGPKVIDFGISRPSDSELRTETGKLIGTPPFMAPEQFRRPREVGPAADVFALGSVIVHAATGSGPFDSDSPYLVAYQVVHDEPDLTGVPEELAELVAGCLAKEPDDRPTPDELMTALRSVSASYDTQAFIPVQRDGSSGSAWRPGPGPGTGPGTGPGPGPGHGGERVVTHQVRQPEPVAAPAARKRLGRRLWIPAVAVAVLACVAGALVLLGPGTGAPREQDAAPSKAAFQPWDIGLSAGGSKATGMAQCAYAPHRLYCTRPGVLAAAVDPADGKVLWSRGDAKRHSDGTVRPPVLSGGLLHVVSEGGKRLAALDPATGKTRWSHDLAAYGGRFAQVGGVVLLTGADARVTALDAATGEEKWRRRIPGQPQPAFVSYGDGLAYAVAAAGSGTKVAAVDPESGATRWQRRFDGVLSLVGAHDGAVWFASTTADSDTDAVVRYDVTRRTVRRVGLRFPLQGAQAVVRKDTVYVLANGGALVAVDTRTSKELWRLETSVSFASAPVAAGDRVYFAGADGRLLAVDASKGVLLGQTKARLGGAHGSLVSGLPSPVAADGKVYSAAPDGSLFAVDARRPGGW | failed
MMRCLTITIMFFMFFFLSVIQKCKSETSKSGDYIIYMGAASSDGSTDNDHVELLSSLLQRSGKTPMHRYKHGFSGFAAHLSEDEAHLIAKQPGVLSVFPDQMLQLHTTRSWDFLVQESYQRDTYFTEMNYEQESEMHEGDTIIGFLDSGIWPEAQSFNDRHMGPVPEKWKGTCMRGKKTQPDSFRCNRKLIGARYYNSSFFLDPDYETPRDFLGHGTHVASIAAGQIIANASYYGLASGIMRGGSPSSRIAMYRACSLLGCRGSSILAAFDDAIADGVDVISISMGLWPDNLLEDPLSIGSFHAVERGITVVCSVGNSGPSSQSVFNAAPWMITVAASTIDRGFESNILLGGDENRLIEGFGINIANIDKTQAYPLIHARSAKKIDANEEAARNCAPDTLDQTIVKGKIVVCDSDLDNQVIQWKSDEVKRLGGIGMVLVDDESMDLSFIDPSFLVTIIKPEDGIQIMSYINSTREPIATIMPTRSRTGHMLAPSIPSFSSRGPYLLTRSILKPDIAAPGVNILASWLVGDRNAAPEGKPPPLFNIESGTSMSCPHVSGIAARLKSRYPSWSPAAIRSAIMTTAVQMTNTGSHITTETGEKATPYDFGAGQVTIFGPSSPGLIYETNHMDYLNFLGYYGFTSDQIKKISNRIPQGFACPEQSNRGDISNINYPSISISNFNGKESRRVSRTVTNVASRLIGDEDTVYTVSIDAPEGLLVRVIPRRLHFRKIGDKLSYQVIFSSTTTILKDDAFGSITWSNGMYNVRSPFVVTSKDDNDSER | failed
MMRDSPSIQGTLDAATQHALLAGRHADPFSVLGPHQAGAHTVVRVLAPGARTVMAVLPGGQRTPLLPMQPGLFENTVPGLQPGAPAAYRLCIEWEGGIQHTADPYAFGPVLD | failed
MMRFVIGFLLSILASISLVSPANAAVIDHDKVVGFEEVTPTTITQKVAKRFQPYLTVSTGCVPFPAVDADGNTSGGLAPTGPHNGGCSSHIGQVYSRSTWHNGVWAIMYAWYFPKDSPSPGLGHRHDWEGIVVWVDNPANPSPQLLSIAYSQHGNFYNVAPTDRNTREQRPLIRYSHAWPLNHSLWIHDQVGGTQPLIGWDDLTPAARHALNTTDFGAANVPFNDHNFINNLRKAWYRLEHHHHHH | failed
MMRMKVKVVVNGKEYEVEVEEVMPGKFRVTLEGETYEVETSAGFVTSPKQVQVPTPAPTPAPAPTPTPAPAPSSKTVVSENVVSAPMPGKVLRVLVRVGDRVRVGQGLLVLEAMKMENEIPSPRDGVVKRILVKEGEAVDTGQPLIELG | not failed
MMRPLCFFLLIFLLSGNPVMAAELRPFICVNEKDHLPSLDPQADAWYREAVALAKPDTLRPWDRIVDLYSKAVERGHWKAMHNLASLYRTGWPGGVEKDTQKALDLYQKMIDLKVPQGFYDMAAMIGNRAGVKNPATDGLTFLDKAASLGNPPALTELGRLYIYVAGQDELGLKYTNCAAGQGYAPANYELAMYYRLVAHNYPKAAGYYLLAASQGNDDAAFFMSGVFDKTSPDVDRMWYAPDEKLHKLYDGIYDQLAADPDLRFPNLIKDHPLPPHPTQGYDADRPDWKPGQ | failed
MMRRFKFVVQNITAKIVYTRICMGTIQKIRTDVNVLHAAIHRIEWLFETFSSVCLSFSGGKDSTVLLHLTADVARRKKRRFSVLFIDWEAQYQCTIAHILKMREMYRDVTETFYWVALPLTTVNGVSQFQPEWICWEPGVEWVRQPPDDAITDMSYFPFYRYAMTFEEFVPAFSSWFAGNRCGVAILTGVRADESLNRFMGLVSQRKLRYADDKPWTTASPEGFYYTLYPLYDWKARDIWIYNARTRAIYNPLYDLMYRAGVPLRNMRVCEPFGPEQRKGLWLYHVLEPETWARMCERVSGAASGALYANESGAYFALRKRITKPPHHTWRSYAMFLLDVMPERTAEHYRNKIAVYLRWYQTRGFPDDIPDEQENDLGSRDIPSWRRICKTLIKNDFWCRTLSFSPNKPRHYERYLQRMKERRKEWGIL | failed
MMRSSKIGFRSLAVWPFSLTAFFFFLLHPCVSAQRVYKPEDVPNVQLADSTRLVTDEAGLLSNAQEEVMNGRLRAIRSSHAVEFAVVTLPSIGDAPLEDFTLKLARQWGVGNEKNNNGLLLVLVLDQRRVRFETGYGLEGYLPDGLLSRIIHDRMIPHFRSGNYAEGLSEGVLAVQQVLDGSYDVKPDGGDRSAVSRVSWGTIFIFYCFFMLLASASVLYQLTSYRRQYPRATAVEEYEFLRRRISMLGCVFLLLFPPGFIVVMAIIKSRQNKLKKEMAVCPCCHQHSVHLLDQSLEEDRYLSPSQQMEHKLKSRDFRVYACSSCDHTQIIGYDHPGTSYKRCPNCGTVALRYMGEKRVRTDRGMMIRKEWRCLYCGENHTQEYRDNNDAEAAATGILLGSLLGRGGRSGGFGGGFGGGGFGGGSFGGGGASGGWLEHHHHHH | failed
MMRSVGAVGEPLVVMCVACPRRGGCVVTVVAAAKSCWCRGVSRNLNPGLCPARRVSVRHSGSCILWCGLPSGRVAAVSLPSDPRRFQRIYIEWQSIYLLNMAQQQRMQGQPMIIMGDDAQRVKDRDAQEHNISAARAVADAVRSTLGPKGMDKMLVSSMGDVTVTNDGVTILQEMDIDNPTAEMIVEVAETQEDEAGDGTTTAVAIAGELLKNAEDLLERDIHPTAIIKGYNLAAEQAREEVDNVAVDVDPDDKDLIRSVAETSMTGKGAELDKELLSSIIYDAVNQVAVETNDGGIVVDAANINIETQTGHGVNESQLLRGAAISKDPVHDQMPAAVEDADVLLLNEAIEVEEAEADTSVNIESPDQLQSFLDQEEKQLKEKVQQIADTGANVVFCQKGIDDMAQHYLAKEGILAVRRTKKSDIEFLTNVLDASVVTDLDAASEADVVAGSVTRDSDDELFYVEGESEQAHGVTLLLRGSTDHVVDELERGVSDALDVSAQTLSDGRVLPGGGATEVEVASRLRDFADSVSGREQLAVEAFADSLELVPRVLAENAGLDSIDTLVDLRSAHENDDDEHIGLNVLSGDLEDTFEAGVVEPAHAKEQAVTSASEAANLVLKIDDIISAGDLSTDKGDDDGGAGGMGGGMGGGMGGMM | failed
MMSDLPRDLLEERLSRVPVKSLREARFTCKNWKTLSKKRSFTKKHLAQEATSRESEFKVVMVLHCKVYLTSINLRGIHNGFDPSINRQAKLVSLNGTDQIDISEVYHCDGLLLCISKDYTRVVVWNPYRSQTLWLKPSSPDHRMDWYICAIGYEKRKSSLRYKVLRFVDFAEEEFVEYEIYELKSNSWRVLDVTSDWEVEFYARGVSLKGNTYWFATDKFPEISSNLIHSVYFLLCFNFTSERFGPRLHLPCYPMDVDTVSLSSVREEQLAVLFQRKDNLHMEIWVTTKIEPEEVMWSKLFLAVDMQPLTDFKFGIADASFIIDEEKKVVVVFAKDKDVMYPTHNTAYIIGEDGYYKEVDLGKTTDKIRDPLVCSYVPSSAQIKQGGKRKKKGKLITD | failed
MMSIKWEQEWDRIYKEQGEVQSEILPTVKVEKDIFKRFGCKKVMDLGCGTGRHTIYLAQNGYQVFAVDISETGIEVTRAKAEKLNLTNIEFAQLDMRNLSVDDNLMDAIMCVWTSGHGTFEDARKNLKEMYRILRLGEILVIDYVSREDENYGKGTEIEKNTFINNVEGEENIPHHYFAKEEIEELYTDFSDVDINPVDYYFTDSYGTRHTIKAFVVIAVK | failed

— a protein production outcome set (Wang et al. 2014)
